Data: patent US20150203579A1 (Regeneron, published 2015)

T1: monkey PD-1 with mFc (monkey)
T1 construct: also called monkey PD-1-mFc; monkey PD-1 dimer
T1 chain: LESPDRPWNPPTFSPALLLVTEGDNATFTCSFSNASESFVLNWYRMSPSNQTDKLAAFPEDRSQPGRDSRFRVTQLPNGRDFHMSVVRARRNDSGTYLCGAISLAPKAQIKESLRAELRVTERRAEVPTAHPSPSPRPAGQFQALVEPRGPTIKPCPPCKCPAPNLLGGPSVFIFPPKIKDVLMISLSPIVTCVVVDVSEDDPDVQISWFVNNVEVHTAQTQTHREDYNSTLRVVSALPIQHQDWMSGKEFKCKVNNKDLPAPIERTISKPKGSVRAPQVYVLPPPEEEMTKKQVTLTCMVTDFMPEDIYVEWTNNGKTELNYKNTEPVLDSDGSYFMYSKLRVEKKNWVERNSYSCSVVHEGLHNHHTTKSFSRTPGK

B1: H2aM7796N (antibody, V domains shown)
VH: QVQLVESGGGVVQPGRSLRLSCAASGFTFSSYGMHWVRQAPGKGLEWVAIIWSDGDSEYNLDSVKGRFTISRDNSKNTLYLQMNSLRVEDSAVYYCARDRDLEDIWGQGTMVTVSS
VL: DIQMTQSPSSLSASVGDRVTITCRASQGIRNDLGWYQQKPGKAPKRLIYAASNLQSGVPSRFSGSGSGTEFTLTISSLQPEDFATYYCLQHNSYPLTFGGGTKVEIK
notes: human variable regions, mouse IgG2a Fc; also called H2M7796N
B2: H2aM7780N (antibody, V domains shown)
VH: QVQLVESGGGVVQSGRSLRLSCAASGFTFSSYGMHWVRQAPGKGLEWVAVIWYDGSNIYYSDSVKGRFTISRANSKNTLYLQMNSLRAEDTAVYYCARPGHWNYFFEYWGQGTLVTVSS
VL: DIQMTQSPSSLSASVGDRVTITCRASQSINNYLNWYQQKPGKAPKLLIYTASSLQSGVPSRFSGSGSGTDFTLTISSLQPEDFATYYCQQSYSTPPLTFGQGTQLEIK
notes: human variable regions, mouse IgG2a Fc; also called H2M7780N
B3: H4xH9034P (antibody, V domains shown)
VH: EVQLVESGGGVVRPGGSLRLSCTASGFTFDDYGMSWVRQAPGKGLEWISGIGWTGGRSSYADSVRGRFTISRDNAKNSLYLQMNSLGAEDTALYYCARDRQWLVQWYFDYWGQGTLVTVSS
VL: not shown
notes: human IgG4 Fc with 2 or more amino acid changes (US20100331527); also called H4xH9034P2
B4: H2aM7788N (antibody, V domains shown)
VH: EVQLVESGGGLVQPGGSLRLSCGASGFTFRNYDMHWVRQITGKGLEWVSAIGSAGDTYYPDSVKGRFTISRENAKNSLYLQMNSLRVGDTAVYYCTRDIHCSSTRCYGMDVWGQGTTVTVSS
VL: not shown
notes: human variable regions, mouse IgG2a Fc; also called H2M7788N
B5: H2aM7798N (antibody, V domains shown)
VH: EVQLLESGGVLVQPGGSLRLSCAASGFTFSNFGMTWVRQAPGKGLEWVSGISGGGRDTYFADSVKGRFTISRDNSKNTLYLQMNSLKGEDTAVYYCVKWGNIYFDYWGQGTLVTVSS
VL: DIQMTQSPSSLSASVGDSITITCRASLSINTFLNWYQQKPGKAPNLLIYAASSLHGGVPSRFSGSGSGTDFTLTIRTLQPEDFATYYCQQSSNTPFTFGPGTVVDFR
notes: human variable regions, mouse IgG2a Fc; also called H2M7798N
B6: H4xH9119P2 (antibody, V domains shown)
VH: EVQLVESGGGLVQPGRSLRLSCAASGFTFEDYAMHWVRQAPGKGLEWVSGIGWSNVKIGYADSVKGRFTISRDNVRNSLYLQMNSLRTEDTAFYYCVKAYTSMLTLYFDYWGQGTLVTVSS
VL: not shown
notes: human IgG4 Fc with 2 or more amino acid changes (US20100331527)
B7: H4xH9035P (antibody, V domains shown)
VH: EVQLVESGGRVVRPGGSLRLSCAASGFTFDDYGMSWVRQLPGKGLEWVAGISWNDGKTVYAESVKGRFIISRDNAKNSLHLEMNSLRAEDTALYYCARDWQYLIDRYFDFWGQGTLVTVSS
VL: not shown
notes: human IgG4 Fc with 2 or more amino acid changes (US20100331527); also called H4xH9035P2
B8: H4xH9048P2 (antibody, V domains shown)
VH: QVQLVQSGAEVKRPGSSVKVSCKVSGVTFRNFAIIWVRQAPGQGLEWMGGIIPFFSAANYAQSFQGRVTITPDESTSTAFMELASLRSEDTAVYYCAREGERGHTYGFDYWGQGTLVTVSS
VL: not shown
notes: as for B6
B9: H4H9008P (antibody, human IgG4 S228P, kappa, V domains shown)
VH: EVQLVESGGGLVRPGGSLRLSCAASGFTFSTYAMAWVRQTPGKGLEGVSAIGGSGDSTYYVDSVKGRFTISRDNSKSTLFLQMNSLRAEDTAVYYCVKVRNYDGSFDIWGQGTMVTVSS
VL: not shown

What follows are binders tested against T2, full length human PD-1 on HEK293/hPD-1 cells (human, UniProt Q15116 25-288) (assay: FACS dose response, HEK293/hPD-1 cells).

Row | EC50 [pM] | Max Geom. Mean MFI @ 100 nM [MFI] | Binder
1 | 4810 | 14100 | B1

The binders below were run against T2, full length human PD-1 on HEK293/hPD-1 … (assay: FACS, 100 nM mAb).

Row | ratio of MFI HEK293/hPD-1 to HEK293 parental cells | Binder
2 | 73.8 | B2
3 | 168 | B1
4 | 69 | B3
5 | 75.7 | B4
6 | 78.1 | B5
7 | 84 | B6
8 | 91.7 | B7
9 | 70.8 | B8

The binders below were run against T3, recombinant human PD-L1 expressed with a C-terminal mouse IgG2a Fc tag (human) (assay: SPR Biacore 3000: 500 nM mAb alone (no hPD-1.hFc) over captured hPD-L1.mFc surface, control).
T3 construct: also called hPD-L1-mFc; hPD-L1.mFc

Row | 500 nM of anti-PD-1 monoclonal antibody (RU) | Binder
10 | -4 | B3
11 | -5 | B6
12 | -3 | B7

Target: T1, monkey PD-1 with mFc
Experiment: SPR, captured mAb, 25 C;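 note: purified anti-PD-1 antibodies tested on Biacore 4000 or T200 instruments, rate constants obtained via 1:1 binding model fit, with KD as kd/ka and half-life as ln2/(60·kd)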

Row | 100 nM Monkey PD-1-mFc Bound (RU) | Kd [pM] | koff [s⁻¹] | kon [M⁻¹ s⁻¹] | t1/2 [min] | Binder
13 | 95 | 818 | 0.000166 | 203000 | 70 | B3
14 | 83 | 1050 | 0.000172 | 163000 | 67 | B6
15 | 78 | 460 | 9.96e-05 | 216000 | 116 | B7
16 | 115 | 754 | 0.000184 | 243000 | 63 | B8

Each binder was assayed against PD-1 chimera: extracellular domain of human PD-1 with trans-membrane and cytoplasmic domains of human CD300a, … (human, UniProt Q9UGN4 181-299, limits assumed) (assay: cell-based or functional assay).

Row | Concentration (M) of Antibody at 150% activation [M] | Emax mean [%] @ 100 nM [%] | Binder
17 | 6.52e-09 | 228 | B2
18 | – | 121 | B1
19 | 2.62e-09 | 202 | B3
20 | 4.72e-09 | 189 | B4
21 | 7.99e-10 | 239 | B5
22 | 1.11e-08 | 163 | B6
23 | 1.2e-09 | 227 | B7
24 | – | 138 | B8

What follows are binders tested against T4, dimeric biotinylated human PD-1 protein with a C-terminal human Fc tag (human, biotinylated (sites not given)) (assay: competition ELISA: 200 pM biot-hPD-1-hFc to coated hPD-L1-mFc; * below theoretical bottom 1.0E-10 M).
T4 construct: also called biot-hPD-1-hFc

Row | IC50 [pM] | Binder
25 | 91 | B2
26 | 66 | B3
27 | 65 | B4
28 | 73 | B5
29 | 82 | B6
30 | 80 | B7

The binders below were run against T2, full length human PD-1 on HEK293/hPD-1 … (assay: FACS, 100 nM mAb, HEK293/hPD-1 cells;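 note: antibodies incubated with cells for 15-30 min on ice, bound antibody detected through a secondary F(ab′)2 by flow cytometry, with parental HEK293 cells tested in parallel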).

Row | MFI [MFI] | Binder
31 | 23700 | B2
32 | 49800 | B1
33 | 10100 | B3
34 | 23100 | B4
35 | 23400 | B5
36 | 9140 | B6
37 | 9920 | B7
38 | 7200 | B8

Target: PD-1 chimera: extracellular domain of human PD-1 with trans-membrane and cytoplasmic domains of human CD300a, … (human, UniProt Q9UGN4 181-299, limits assumed)
Experiment: cell-based or functional assay
Remark: another data set of the same source

Row | Emax, AP1-Luc signal at 100 nM antibody (% of signal without anti-PD-1 antibody) [%] | Binder
39 | 150 | B9

Each binder was assayed against T4, dimeric biotinylated human PD-1 protein … (assay: competition ELISA: 200 pM biot-hPD-1-hFc to coated hPD-L1-mFc).

Row | % blocking at 50 nM antibody [%] | IC50 [pM] | Binder
40 | 100 | – | B2
41 | 60 | 1300 | B1
42 | 96 | – | B3
43 | 100 | – | B4
44 | 100 | – | B5
45 | 96 | – | B6
46 | 95 | – | B7

Each binder was assayed against T5, recombinant human PD-1 dimer expressed with a C-terminal mouse IgG2a Fc tag (human) (assay: competition ELISA: 1.5 nM hPD-1-mFc to coated hPD-L1-hFc; * below theoretical bottom 7.5E-10 M).
T5 construct: also called hPD-1-mFc

Row | IC50 [pM] | Binder
47 | 690 | B2
48 | 510 | B3
49 | 220 | B4
50 | 680 | B5
51 | 200 | B6
52 | 620 | B7

What follows are binders tested against T5, recombinant human PD-1 dimer expressed … (assay: competition ELISA: 100 pM hPD-1-mFc to coated hPD-L2-hFc).

Row | % blocking at 100 nM antibody [%] | IC50 [pM] | Binder
53 | 100 | 130 | B5
54 | 98 | 140 | B8

Target: T1, monkey PD-1 with mFc
Experiment: SPR, captured mAb, 37 C;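 note: Real-time Biacore surface plasmon resonance biosensor readout of PD-1 reagent binding to purified anti-PD-1 monoclonal antibodies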

Row | 100 nM Monkey PD-1-mFc Bound (RU) | Kd [pM] | koff [s⁻¹] | kon [M⁻¹ s⁻¹] | t1/2 [min] | Binder
55 | 81 | 2440 | 0.000749 | 307000 | 15 | B3
56 | 40 | 3170 | 0.000885 | 279000 | 13 | B6
57 | 40 | 1700 | 0.000623 | 367000 | 19 | B7
58 | 84 | 2290 | 0.00113 | 494000 | 10 | B8

Each binder was assayed against T5, recombinant human PD-1 dimer expressed … (assay: BLI Octet: 100 nM hPD-1-mFc + 500 nM mAb to captured hPD-L1-hFc).

Row | % Blocking [%] | binding of the mixture (nm) | Binder
59 | 114 | -0.01 | B2
60 | 129 | -0.02 | B1
61 | 100 | 0 | B4
62 | 86 | 0.01 | B5

Target: T2, full length human PD-1 on HEK293/hPD-1 …
Experiment: FACS dose response, HEK293/hPD-1 cells
Remark: another data set of the same source

Row | EC50 [pM] | Max Geom. Mean MFI @ 100 nM [MFI] | Binder
63 | 1690 | 18400 | B2
64 | 209 | 32400 | B3
65 | 321 | 14800 | B4
66 | 69.8 | 20900 | B5
67 | 348 | 37800 | B6
68 | 115 | 28700 | B7
69 | 668 | 33700 | B8

The binders below were run against T6, recombinant human PD-1 expressed with a C-terminal human IgG1 Fc tag (human) (assay: SPR Biacore 3000: 100 nM hPD-1.hFc + 500 nM mAb to captured hPD-L1.mFc;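 note: inhibition study with anti-PD-1 mAbs, SPR responses tracked in real time and read at the close of each step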).
T6 construct: also called hPD-1-hFc; hPD1-hFc

Row | % Blocking [%] | binding of the mixture (RU) | Binder
70 | 105 | -5 | B3
71 | 105 | -5 | B6
72 | 104 | -4 | B7

What follows are binders tested against T5, recombinant human PD-1 dimer expressed … (assay: competition ELISA: 1.5 nM hPD-1-mFc to coated hPD-L1-hFc).

Row | % blocking at 200 nM antibody [%] | IC50 [pM] | Binder
73 | 94 | – | B2
74 | 98 | – | B3
75 | 74 | – | B4
76 | 93 | – | B5
77 | 78 | – | B6
78 | 99 | – | B7
79 | 67 | 3300 | B8
